According to the DeepSol protein solubility set:

Experiment: soluble on expression in E. coli; label from the status in PepcDB or PDB records

Sequence | soluble on expression in E. coli
MPLALAQLQDIGDRITDRLRPWSRSAEFWVRAADIYTSYKVAPPDPVPLLHWLVCQLRAGFVKDEEEREAMWEQQHELGAQKMYSLCSELGGLFLKEAAQILGKPDLAPMAWVKRLVTLCDNAPATPIDVVRDVVEKQFGKSFDDIFECFDVEPVGSASIAQVHRARLKLSKTDVAVKVQHPGAEKLMMVDIRNMQAFALFLQKYDINFDLYSATKEMEKQICYEFDFVREAKAMERIREFLRVTNKKKPPVIVPRVIPEMVSREVLVMEFIEGTPIMNLGNEMAKRGIDPGGKIATMAKQKILTDLTLAYGQMILKDGFFHADPHPGNILICKNTEARLLFLFLFLAMVALLDYGQVKAMPEDLRLAYANLVIAMADDDFLRTKESFREIGIETWSIADNELEELFQLSLRMFDTRLPPGVTAMSPFAEDSSLNKVGVQNCLLNGVSILFFYLKSFPEELFSVLRTIQLLRGLTVGMGLRFSCAQQWKPIAEEALLKSGRLKDY | soluble
MGSDKIHHHHHHMARLGVDFGTSNTAAGLVQAGHPRVLPLEPGAQTLPTAVFIDFAARRYVYGTDAARAMMDGQEGRFLRGLKSILGTPLAREPRMFLNERLTLIEVIARFLAEIRTRAERLSGERFDRALSGRPVHFHSASAERDAQACTDLHDAYLMAGFSEVCFLPEPEAAALAVAGQGRMLIVDIGGGTSDFTLCDRRGTTTRMLASRGLRIGGTDFDRVLSLDHAMPLLGYEAQIGAELGEASHSAPRALFHDLASWEKIAFVYDPATLREVRRWVRLAEQPRLFERLAEVLESHLGHDVAYAVEAGKIAANGAAAGRIALDIVERGLGADLGNAAMQAALAGFADEIATCAMQTVRDAGVGPDSVDQVVFVGGSSLMGVIRAALARVLPGAEQQDSEVFTAVVHGLALASEDQ | not soluble
MLLFLTIILILVGGCTPKTKEVVLKNRNYVVIKEGKPALSEEDIIKLSRSLYVNKVNRPEVLRALKSLLTKRESLKYAFYRMKLYENIIVPILRSYGLPEEFKYLPIVESMYNPFAVSRSGAAGIWQLMPQTARRYGLIVRKDYDERFDVVKSTHAAAKYLRDLLEEFKNLELVLAAYNCGENCIRRNVNYNFWKERRKLPKETQNYVPLFLATLLIAQNPEYYGIHLYEPSREIAIVKVGIPMSVEDFLIMYSMNESRFRDLNPHIRGRKIPKNANVYVEERKLVKGEYLLRARGREE | not soluble
MAHHHHHHVREEKLRLRKQIIEHMNSLSKERYTTLSEQIVFSLYEQKEWAEAKTIGITLSMENEVNTYPIIEKAWKEGKRVVVPKCNKETRTMSFRQISNFDQLETVYMNLREPIPALTEEVNADEIDLQIVPGVAYTERGERIGYGGGYYDRYLVHYKGKTLSLAYSFQMVEHIPVEPFDKNVEKIITEKGTMVKNGLV | soluble
AHHHHHHGSKFPKNFMFGYSWSGFQFEMGLPGSEVESDWWVWVHDKENIASGLVSGDLPENGPAYWHLYKQDHDIAEKLGMDCIRGGIEWARIFPKPTFDVKVDVEKDEEGNIISVDVPESTIKELEKIANMEALEHYRKIYSDWKERGKTFILNLYHWPLPLWIHDPIAVRKLGPDRAPAGWLDEKTVVEFVKFAAFVAYHLDDLVDMWSTMNEPNVVYNQGYINLRSGFPPGYLSFEAAEKAKFNLIQAHIGAYDAIKEYSEKSVGVIYAFAWHDPLAEEYKDEVEEIRKKDYEFVTILHSKGKLDWIGVNYYSRLVYGAKDGHLVPLPGYGFMSERGGFAKSGRPASDFGWEMYPEGLENLLKYLNNAYELPMIITENGMADAADRYRPHYLVSHLKAVYNAMKEGADVRGYLHWSLTDNYEWAQGFRMRFGLVYVDFETKKRYLRPSALVFREIATQKEIPEELAHLADLKFVTRK | not soluble
MSLSEDLRFFEFFAGGGMARAGLGNQWQCLFANDMDRIKASTYIQNWGKDHFDSRDIREVNSEDLERNGDLAWASFPCQDLSVAGNGLGIGSSSAKDFTRSGALWPFLDLIDTLRQEERQPPLLVLENVVGLLTLEGGRDFAAICERLGEIGYRYGAVIIDAKHFLPQSRPRVFIIAVQRNIDIPCKLSRGMATANWHTPTLLRAYKSLTPILHADWVWWELGDAPILQENALESFIQREGVLWNTPEETKRIISMMAPAHLARLENAKCAGGVAVGSLYLRMRREGGINKQRAEITFSPLLGCLRTPRGGASRPRIIVVESGHVRTRLLTICEAARLMGLANTYILPEIYHHAFKVIGDGVAVPAVRFLAERLLEPLAIAARGQIAIPHEKAFMAEGHHHHHH | soluble
MTSAAQLTALLHLASPALPVGAFSYSQGLEAAVEARHVHDEASAARWIAEGLAVLAACEAPLWLLQYADWQAGRLDAVAERDGWFLATRETRELRLETAQMGWSLARLIAQMGWGAPAMRDALAARAAITFPTAFAAAAVALGIEARDGLTAYSFAWVENQVAAAVKAIPLGQAAGQRILFGLHAAVGQAAEDAARRAACHPPELSTFSPGLGVLSARHETQYSRLFRSLEHHHHHH | not soluble
MSLRVLFLRPDNEDNELNEKLMILRKNGIEVLNIPIFKIKCVSYSLPTYDYEALAFTSRNSVICFKDRTLIKNVHKIYAIGEETAELLMKMYNVNPITPERFTSIELAKRILEDKVNSILSIRSRKASEDMRNILNGKIKYDEIYVYDSEIIRDNINEISKILTECEVDAIAFTSSLMAKLIGPFIRGKCNIIIFSIGPMTTETLKRVNNKVKIIESKTHSIKGIIETILVEMKRNGRDEGHHHHHH | soluble
MVKAISTEKDLLLKVDKSFPWETFRSKLKSLYSKKPKWNVISLLKVLLIKLIFDISWNNLEGEIRDSKMFMDFLGGKIPPKSTVFSFYKKLQQTVIQEGETMRTTLMDELNKALDKAISEYREKGFELEVGREKKTEKVSKGTYPPKIDTFLPVKPYPREKRSLSKTGSLEHHHHHH | soluble
MPTFLELNTTISVKEKELLTKEQFDKLLQAPNTTTLARLLHQSVYHLTVDDLNDLDRLESILMAELTKTYRWAFAETPQPDIVQLFTLRYTYHNVKVLLKAKASQADLSHLLLPIGDKPLVALEHLIRTMTSDEFPKEVVTEIQSIWAEYQDYQDIRVLEIGTDLAYFKALKQIAQRLEDPVFQQAVLIVIDLYNLITVRRAKSQNKPISFMMQLLSDEASRPSKTFITLEDDKDLMTWFENVTPDSYMTALKPYSEKLRQGTLQTTELEYLVDECLYHLFAKAKYQVDGPYVLARFLLAKSFEVKNLRLLAAALANDLPKERVIERMRPIA | not soluble
EGGEPCACPHALHRVCGSDGETYSNPCTLNCAKFNGKPELVKVHDGPCEPDEDEDVCQECDGDEYKPVCGSDDITYDNNCRLECASISSSPGVELKHEGPCRT | soluble
AVSKVYARSVYDSRGNPTVEVELTTEKGVFRSIVPSGASTGVHEALEMRDGDKSKWMGKGVLHAVKNVNDVIAPAFVKADIDVKDQKAVDDFLISLDGTANKSKLGANAILGVSLAASRAAAAEKDVPLYKHLADLSKSKTSPYVLPVPFLNVLNGGSHAGGALALQEFMIAPTGAKTFAEALRIGSEVYHNLKSLTKKRYGASAGNVGDEGGVAPNIQTAEEALDLIVDAIKAAGHDGKVKIGLDCASSEFFKDGKYDLDFKNPNSDKSKWLTGPQLADLYHSLMKRYPIVSIEDPFAEDDWEAWSHFFKTAGIQIVADDLTVTNPKRIATAIEKKAADALLLKVNQIGTLSESIKAAQDSFAAGWGVMVSHRSGETEDTFIADLVVGLRTGQIKTGAPARSERLAKLNQLLRIEEELGDNAVFAGENFHHGDKL | soluble
MSLNRIFDAHCHIIDPQFPLIANNGYLPDPFGVGDYLATVQPLGVQGGAVVSGSFQGFDQGYLLQALRLLGPGFVGVTQLPASVTDTELDTLNAAGVRALRFNLKRGGSEQLDQLEALAVRVRERAGWHSELYIDSRELAEIETRLLKLPAISIDHLGLSAEGLPVVLRLAERGVRVKACGFGRVDFPVREALRDIHAANPNALMFGTDLPSTRAPRPFQPDDIELLIDALGEGGARQALWDNAAEFYREGHHHHHH | not soluble
MVRRLTSPRLEFEAAAIYEYPEHLHSFLNDLPTRPGVYLFHGESDTMPLYIGKSVNIRSRVLSHLRTPDEAAMLRQSRRISWICTAGEIGALLLEARLIKEQQPLFNKRLRRNRQLCALQLNEKRVDVVYAKEVDFSRAPNLFGLFANRRAALQALQSIADEQKLCYGLLGLEPLSRGRACFRSALKRCAGACCGKESHEEHALRLRQSLERLRVVCWPWQGAVALKEQHPEMTQYHIIQNWLWLGAVNSLEEATTLIRTPAGFDHDGYKILCKPLLSGNYEITELDPANDQRAS | not soluble
MGSDKIHHHHHHMGNRQRILPLGVQAPATLEGYYPCPNAAALHAVLKLVAEPQGLCLYLYGPGGVGKSHLLLGAASALAGWTPYMDCGDVPQLFNRIKDLEGFSSLVAAPLLCLDNIEVWAGQRDKETFLFDLYNERMSNGRPMLLAGRAAPRFLDWALPDWASRASACLQVALRLPDDTERMAILQEMAQRRGLQIGVEAAHYLLRHHARDPRTLDGLLTILDAGSWEHQREVTIPFIRLCLGAEKP | not soluble
SNAMANIKIRQETPTAFYIKVHDTDNVAIIVNDNGLKAGTRFPDGLELIEHIPQGHKVALLDIPANGEIIRYGEVIGYAVRAIPRGSWIDESMVVLPEA | soluble
GPGSMKLTFYRLLGCPYCAKVEAVLQYHDVPYEEVHVDPLSGKGLPDRRYQLAPQLYLAPLAKRNSGGAEAAATDSNGVYVVDSAEIVSRLSGPLKYAADIANPRISATRDWITNHFHGASFAITNNSFCDAYATYAYVTPSNYQNFLYHVVGSAALSVLSRYKIQPRLIAKMECADGPAAATPTGAPASTDSNGLWMLSEASRKALAATVRFGAVEEWLRAELQTFLQRRPADKVFHGGSSPDLADVEMYGVTRVVDQHPRLGAVVREGAFGEWQTAMREKLKANTGSVYA | not soluble
MIPPLNRYVPALSKNELVKTVTNRDIQFTSFNGKDYPLCFLDEKTPLLFQWFERNPARFGKNDIPIINTEKNPYLNNIIKAATIEKERLIGIFVDGDFFPGQKDAFSKLEYDYENIKVIYRNDIDFSMYDKKLSEIYMENISKQESMPEEKRDCHLLQLLKKELSDIQEGNDSLIKSYLLDKGHGWFDFYRNMAMLKAGQLFLEADKVGCYDLSTNSGCIYLDADMIITEKLGGIYIPDGIAVHVERIDGRASMENGIIAVDRNNHPALLAGLEIMHTKFDADPYSDGVCNGIRKHFNYSLNEDYNSFCDFIEFKHDNIIMNTSQFTQSSWARHVQ | not soluble
MGSDKIHHHHHHMKLNTIDYLAPDSAERFVESLRETGFGVLSNHPIQKQLVEDIYKEWYNFFQSEQKHDFLFKSETHDGFFPASISETAKGNNVKDIKEYYHVYPWGRIPDSLRANILAYYEHANTLAAELLSWIEKYTPADVAEKYSIPLPDMIAQSQQTLLRILHYPPMKGDEEMGAIRAAAHEDINLITILPAANEPGLQVKTKTGEWIDVPSDFGSIIINIGDMLQEASGGYFPSTSHRVINPEGTDKTKSRISLPLFLHPNPEVVLSERYTADSYLQERLRELGVI | not soluble
MRRIITMTVNNRPGVLNRITGLFTKRHYNIESITVGHTEIEGISRMTFVVNVDDERTAEQIIKQLNKQIDVLKVNDITDQAIVARELALIKVAAPPAVRQEIYTLIEPFRASIVDVSKDSLVIQVTGEPEKVEALIELLRPYGIKEVARTGTTAFTRGAQKATTNQKTAFII | not soluble
MIRFLGNIEVRADAKGRVFIPATFRKQLQAASEERLIMRKDVFQDCLTLYPESVWNEELNELRSRLNKWNSKHQLIFRQFVSDVEVVTPDSNGRILIPKRYLQICNIRGDIRFIGIDNKIEIWAKERAEQPFMSPEEFGAALEEIMNDENRQDGER | not soluble
